Reference: US9555076B2, “Neuregulin based methods and compositions for treating cardiovascular diseases” (Zensun (Shanghai) Science & Technology, Co., Ltd., priority 2002, dated 2017)

System: acute myocardial injury caused by viral (Coxsackie B3) infection in mice
Experiment: Echocardiography heart function, mice infected with Coxsackie B3 virus
Type: in vivo, BALB/C mice
Procedure: Drug administration of both the testing drug group and the model group was intravenous injection into the tail vein of mice, once every day (qd), for consecutive 5 days, volume of each of the drug administered was 0.2 ml/animal.
0.2 ml of 100×TCID50 CVB3 provided by Zhong Shan Hospital affiliated to Fudan University was injected intra-abdominally and established myocarditis model. Within the following week, the mouse manifested pilo-erection, depilation, emaciation, dullness and death, about half of the tested animals died at the 8th day.
Intravenous injection of the testing drug into the tail vein was carried out the same day of intra-abdominal viral infection in mice, the injection was performed for consecutive 5 days, animal survival rate was monitored, after completion of the experiment, echocardiograph, myocardial pathologic examination, serum troponin determination were carried out.
Chest depilating was performed at the 7th day of viral injection, then the mouse was fixed on special made fixed mount and echocardiograph was carried out with S12 high-frequency probe, the main index included: • EF: ejection fraction of left ventricle, being major index reflecting ejection function of left ventricle; • FS: shortening fraction of left ventricle, index reflecting contraction function of left ventricle; • LVDd: diastolic maximal inner diameter (cm); • LVDs: systolic minimal inner diameter (cm). 7.3.3.2 Determination of Serum Troponin I (cTnI) in Mice
• Normal mice control group, model group and testing drug group were set up; • Normal mice control group (n=10); • Model group (n=20): Prepared buffer solution was injected; • Testing drug group (n=20): 30 μg/kg of rhNRG-1 β was administered for 3, 5 and 7 consecutive days as three difference therapeutic courses with 20 animals assigned for each group; • Placebo control group (n=20): Intra-abdominal injection of non-CVB3 freeze-thaw cellular supernatant, 0.2 ml/animal. 10.2 Dosage Set Up, Preparation of Testing Drug, Route of Drug Administration, Times of Drug Administration, Concentration and Volume of the Testing Drug • rhNRG-1β was diluted with preparation buffer solution (10 mM PB, 0.2% human serum albumin, 5% mannitol to needed concentration; • Three drug administration groups were set up, intravenous injection for consecutive 3-day, 5-day and 7-day, drug volume for each dose was 0.2 ml/animal; • Drug administration of the model group was intravenous injection into the tail vein of mice, once every day (qd), for consecutive 7 days, drug volume for each dose was 0.2 ml/animal. 7.3 Method of the Experiment 7.3.1 Set Up of Acute Viral Myocariditis Animal Model in Mice

[1] = 7.5 μg/kg iv qd × 5, 7th day, (I)
[2] = 7.5 μg/kg iv qd × 5, 7th day, (II)
[3] = 15 μg/kg iv qd × 5, 7th day, (I)
[4] = 15 μg/kg iv qd × 5, 7th day, (I), listed as rhNRG-1β
[5] = 15 μg/kg iv qd × 5, 7th day, (II)
[6] = 30 μg/kg iv qd × 3, 7th day, (I)
[7] = 30 μg/kg iv qd × 3, 7th day, (I), listed as rhNRG-1β
[8] = 30 μg/kg iv qd × 3, 7th day, (II)
[9] = 30 μg/kg iv qd × 5, 7th day, (I)
[10] = 30 μg/kg iv qd × 5, 7th day, (I), listed as hNRG-1β
[11] = 30 μg/kg iv qd × 5, 7th day, (II)
[12] = 30 μg/kg iv qd × 5, 7th day, Example 5 (I)
[13] = 30 μg/kg iv qd × 5, 7th day, Example 5 (I), listed as rhNRG-1β
[14] = 30 μg/kg iv qd × 5, 7th day, Example 5 (II)
[15] = 30 μg/kg iv qd × 7, 7th day, (I)
[16] = 30 μg/kg iv qd × 7, 7th day, (I), listed as rhNRG-1β
[17] = 30 μg/kg iv qd × 7, 7th day, (II)

B1: rhNRG-1 β: Recombinant human neuregulin fragment of 61 amino acid (SEQ ID NO:4), 3 disulfide bonds, expressed in E. coli (protein, listed as Homo sapiens)
chain: SHLVKCAEKEKTFCVNGGECFMVKDLSNPSRYLCKCPNEFTGDRCQNYVMASFYKAEELYQ
modifications: disulfide (positions not given here)
EF [1]: 78.1 ± 9.3% | FS [1]: 41.7 ± 9.6% | LVDd [1]: 0.191 ± 0.012 cm | LVDs [1]: 0.114 ± 0.028 cm | EF [2]: 71.9 ± 6.69% | FS [2]: 35.7 ± 5.60% | LVDd [2]: 0.213 ± 0.009 cm | LVDs [2]: 0.133 ± 0.015 cm | EF [3]: 86.0±2.9% | FS [3]: 50.7±4.3% | LVDd [3]: 0.189±0.008 cm | LVDs [3]: 0.099±0.027 cm | EF [4]: 81.3 ± 6.28 % | FS [4]: 44.5 ± 8.27 % | LVDd [4]: 0.189 ± 0.008 cm | LVDs [4]: 0.099 ± 0.027 cm | EF [5]: 81.6 ± 4.59 % | FS [5]: 44.9 ± 5.68 % | LVDd [5]: 0.201 ± 0.011 cm | LVDs [5]: 0.114 ± 0.018 cm | EF [6]: 73.1±6.6% | FS [6]: 36.7 ± 4.7% | LVDd [6]: 0.194 ± 0.008 cm | LVDs [6]: 0.123±0.012 cm | EF [7]: 73.1 ± 6.6% | LVDs [7]: 0.123 ± 0.012 cm | EF [8]: 81.0 ± 5.4% | FS [8]: 43.9 ± 5.1% | LVDd [8]: 0.211 ± 0.016 cm | LVDs [8]: 0.121 ± 0.016 cm | EF [9]: 90.2±2.5% | FS [9]: 55.7±2.1% | LVDd [9]: 0.187±0.006 cm | LVDs [9]: 0.085±0.009 cm | EF [10]: 90.2 ± 2.5 % | FS [10]: 55.7 ± 2.1 % | LVDd [10]: 0.187 ± 0.006 cm | LVDs [10]: 0.085 ± 0.009 cm | EF [11]: 87.7 ± 3.76 % | FS [11]: 51.8 ± 5.24 % | LVDd [11]: 0.196 ± 0.011 cm | LVDs [11]: 0.094 ± 0.011 cm | EF [12]: 86.8±4.4% | FS [12]: 51.9±5.8% | LVDd [12]: 0.187 ± 0.006 cm | LVDs [12]: 0.090±0.011 cm | EF [13]: 86.8 ± 4.4% | FS [13]: 51.9 ± 5.8% | LVDs [13]: 0.090 ± 0.011 cm | EF [14]: 85.8 ± 4.205% | FS [14]: 50.0 ± 6.350% | LVDd [14]: 0.199 ± 0.000 cm | LVDs [14]: 0.100 ± 0.014 cm | EF [15]: 87.0±3.3% | FS [15]: 51.8±5.1% | LVDd [15]: 0.192 ± 0.008 cm | LVDs [15]: 0.092±0.012 cm | EF [16]: 87.0 ± 3.3% | FS [16]: 51.8 ± 5.1% | LVDs [16]: 0.092 ± 0.012 cm | EF [17]: 87.283 ± 1.694% | FS [17]: 52.367 ± 1.847% | LVDd [17]: 0.194 ± 0.017 cm | LVDs [17]: 0.092 ± 0.008 cm
